# Data published in patent publication US6586197B1, “Methods and materials for identifying novel pesticide agents” (priority 1999, dated 2003).
# Experiments:
# [1] = system: expressed M sexta APN1a; assay: Aminopeptidase N activity assay (L-leucine-p-nitroanilide), homogenate of pHSP120-transfected Sf21 cells; type: biochemical, Manduca sexta; settings: homogenate 50 μg of proteins, pHSP120-transfected Sf21 cells (FIG. 9, column B)
# Procedure: (§1) Sf21 cells transfected with pHSP120 or pHSP-HR5 were collected and washed two times with PBS. The cells were suspended in 2 ml PBS and then homogenized with Potter-Helvehjem homogenizer. The cell homogenate was centrifuged at 27,000×g for 15 min at 4° C. The pellet was re-suspended in 2 ml of 10 mM Tris-HCl, 150 mM NaCl, pH 7.4. APN activity was assayed with L-leucine-p-nitroanilide as substrate as described previously (4). Briefly, the APN substrate (50 μl 6.8 mg/ml in methanol) was mixed with 1.4 ml of substrate buffer (10 mM Tris-HCl, 150 mM NaCl pH 7.4), and then the homogenate (50 μg of proteins) was added. The sample solution was incubated at 37° C. for 2 h. The level of APN activity was then determined by spectrophotometric measurement of free p-nitroanilide at […].
# (§2) Sf21 cells transfected with pHSP120 or pHSP-HR5 were collected and homogenized. The homogenate (50 μg of proteins) was tested for APN activity. A high level of APN activity was present in the cells transfected pHSP120 compared with that in the cells transfected with pHSP-HR5 (FIG. 9, columns A and C).
# [2] = system: enzymatic activity of Sf21 cells transfected with pHSP-HR5; assay: Aminopeptidase N activity assay (L-leucine-p-nitroanilide), homogenate of pHSP-HR5-transfected Sf21 cells; type: biochemical, Spodoptera frugiperda; settings: homogenate 50 μg of proteins, pHSP-HR5-transfected Sf21 cells (FIG. 9, column D)
# Procedure: as §1, §2
# [3] = system: expressed 120 kDa APN on Sf21 cells transfected with pHSP120; assay: Immunofluorescence binding of rhodamine-labeled toxins to Sf21 cells (confocal microscopy), pHSP120; design: species or system Manduca sexta; settings: toxin 1 μg/ml, fixed Sf21 cells transfected with pHSP120
# Procedure: Growth of B. thuringiensis strains, trypsin activation, and fast-performance liquid chromatography (Pharmacia) purification of Cry1Ac, […] and Cry3a toxins were done as previously described (Garczynski et al 1991; Lu and Adang 1996). […] The purified Cry1Ac and Cry1Ba (200 μg) were labeled with 5-(and-6)-carboxytetramethylrhodamine, succinimidyl ester [5(6)-TAMRA SE] (Molecular Probe, Eugene, Oreg.) according to the manufacturer's instructions. Briefly, 5(6)-TAMRA (5 mg) were dissolved in 0.5 ml of Dimethylformamide (DMF) immediately before starting the labeling. The dye solution (100 μl) was slowly added into 500 μl of toxin sample (200 μg toxins) and incubated for 1 h at room temperature. The reaction was stopped by adding 0.1 ml of 1.5 M hydroxylamine, pH 8.5, and then the mixture was incubated. for 1h at room temperature. […]
# Sf21 cells were plated onto a microscope cover glass (18×18 mm) in a tissue culture dish (60×15 mm diameter), and then transfected and heat-shocked as described above. […] Immunostained cells were observed using fluorescence microscopy or fluorescence confocal microscopy (Center for Advanced Ultrastructural Research, University of Georgia).
# Since the expressed 120 kDa APN located on Sf21 cell surfaces, we examined the binding of Cry1toxins to Sf21 cells using double immunofluorescence staining. […] And then cells were viewed by fluorescence confocal microscopy.
# [4] = system: expressed 120 kDa APN from Sf21 cells; assay: Toxin affinity chromatography and anti-APN immunoblot, Sf21 cells; type: binding, Manduca sexta; settings: CHAPS-solubilized Sf21 cells, anti-APN immunoblot (FIG. 13)
# Procedure: Affinity purification method of M. sexta 120 kDa APN from Sf21 cells or M. sexta midgut BBMV was described in Luo et al (1996). Briefly, Cry1Ac, Cry1Ba and Cry3a toxins (200 μg) were coupled to 400 μl of cyanogen bromide-activated Sepharose 4B in 20 mM Na2CO3, pH 9.6. M sexta BBMV (1 ml, 3.4 mg/ml proteins) or Sf21 cells (10^7 cells) were solubilized with 2% 3-[(3-cholamidopropyl) dimethylammoniol]-1-propane-sulphonate (CHAPS) in buffer A (50 mM Na2CO3, pH 9.6, 200 mM NaCl, 5 mM EGTA, 0.1% CHAPS). Insoluble material was removed by centrifugation at 27,000×g for 30 min at 4° C. CHAPS-solubilized BBMV (1 ml) or Sf21 cells (2 ml) were then added to the toxin-coupled Sepharose beads equilibrated with Buffer A. The mixture was incubated at 4° C. overnight. After washing with 100 ml of Buffer A, the binding protein-toxin complex was dissociated from the beads by heating in SDS-PAGE sample buffer at 100° C. for 5 min. The samples were separated by 8% SDS-PAGE, and then electrophoretically transferred to nitrocellulose membrane (Millipore Corp., Bedford, Mass.) in transfer buffer (Towbin et al., 1979) at 4° C. overnight. The membrane was blocked with 5% non-fat dry milk in PBST at room temperature for 1 h, and then probed with anti-APN antibody (0.5 μg/ml) in PBST containing 0.1% non-fat dry milk for 2 h. […]
# [5] = biological target: T1, purified 115 kDa APN from Manduca sexta (Manduca sexta, UniProt Q11001); settings: Masson et al., 1995; cited from earlier work
# T1 sequence (Q11001 36-968 limits assumed): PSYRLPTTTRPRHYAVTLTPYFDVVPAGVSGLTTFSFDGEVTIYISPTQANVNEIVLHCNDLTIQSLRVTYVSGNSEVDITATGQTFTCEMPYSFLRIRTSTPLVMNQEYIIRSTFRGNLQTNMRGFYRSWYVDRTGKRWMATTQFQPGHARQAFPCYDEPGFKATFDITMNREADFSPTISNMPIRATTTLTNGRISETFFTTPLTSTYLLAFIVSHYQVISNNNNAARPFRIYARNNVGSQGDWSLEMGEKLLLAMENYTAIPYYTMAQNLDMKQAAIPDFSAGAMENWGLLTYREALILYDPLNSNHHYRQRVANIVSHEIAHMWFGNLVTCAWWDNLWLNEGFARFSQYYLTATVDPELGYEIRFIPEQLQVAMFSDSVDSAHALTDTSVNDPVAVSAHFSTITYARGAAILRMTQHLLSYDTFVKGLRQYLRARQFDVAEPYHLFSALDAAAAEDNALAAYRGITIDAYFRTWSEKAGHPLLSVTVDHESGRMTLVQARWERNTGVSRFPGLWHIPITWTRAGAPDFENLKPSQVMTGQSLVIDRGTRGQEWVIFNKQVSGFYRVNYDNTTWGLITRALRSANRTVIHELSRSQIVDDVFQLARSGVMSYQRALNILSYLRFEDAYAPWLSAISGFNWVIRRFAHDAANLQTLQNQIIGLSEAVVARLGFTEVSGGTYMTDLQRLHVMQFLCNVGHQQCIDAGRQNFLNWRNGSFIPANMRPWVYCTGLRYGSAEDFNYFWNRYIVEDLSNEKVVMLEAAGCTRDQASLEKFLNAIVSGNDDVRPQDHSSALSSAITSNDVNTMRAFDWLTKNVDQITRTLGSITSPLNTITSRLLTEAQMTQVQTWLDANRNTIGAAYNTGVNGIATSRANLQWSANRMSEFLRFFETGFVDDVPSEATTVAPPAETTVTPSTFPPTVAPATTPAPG
# [6] = biological target: T2, M. sexta 120 kDa APN (Manduca sexta, UniProt Q11001); settings: previous studies (Knight 1994; Sangadala 1994; Masson 1995; Lu and Adang 1996); cited from earlier work
# T2 sequence (Q11001 36-968): T1 sequence (Q11001 36-968 limits assumed)
# [7] = system: Sf21 cells transfected with pHSP120; assay: Toxicity assay (Trypan blue cell mortality), Sf21 cells expressing M. sexta 120 kDa APN; settings: 2 h
# Procedure: (§3) The pHSP120 plasmid DNA was isolated and purified using a Plasmid Maxi Kit (Qiagen, Valencia, Calif.). Sf21 (IPLB-Sf21) cells (Vaughn et al., 1977) were plated at 1.8×10^6 cells per plate (60 mm diameter) prior to transfection with pHSP120 DNA. Plasmid DNA (10 μg) was mixed with 5 μl of Lipofectin reagent (Gibco BRL, Gaithersburg, Md.) and combined with 1 ml of TC-100 medium (Gibco BRL, Gaithersburg, Md.). The mixture was incubated at room temperature for 15 min. Following 3 washes with TC-100 medium, the DNA/Lipofectin mixture was added to the cells, and then the cells were incubated at room temperature for 4 h on a rocker. After removal of DNA/Lipofectin mixture, TC-100 with 10% fetal bovine serum (4 ml) was added to the plates and the cells were incubated at 27° C. overnight. Expression of 120 kDa APN in Sf21 cells was induced by heat-shocking cells at 42° C. for 30 min the following day. After incubation at 27° C. for 24 h, the cells were collected and analyzed using immunofluorescence localization and Western blotting.
# Sf21 cells (1.8×10^6) were grown and heat-shocked as described above. […] The freshly prepared toxin solution (1 ml) was added to each Sf21 cell plate and incubated at room temperature for 2 h. Cell mortality was determined by trypan blue staining as described by Thomas and Ellar (1983).
# (§4) Thetoxicity of three Cry1toxins to Sf21 cells expressing M sexta 120 APN was determined. A single concentration of Cry1toxins (40 μg/ml) was used and the cell mortality was measured by Trypan blue staining (Thomas and Ellar 1983).
# [8] = system: Sf21 cells transfected with pHSP-HR5; assay: Toxicity assay (Trypan blue cell mortality), control-vector Sf21 cells; settings: 2 h
# Procedure: as §3, with “Expression of 120 kDa APN in Sf21 cells was induced by heat-shocking cells at 42° C. for 30 min the following day.” left out
# Sf21 cells (1.8×10^6) were grown and heat-shocked as described above. […] Cell mortality was determined by trypan blue staining as described by Thomas and Ellar (1983).
# as §4
compound,measurement,setting,value
CC(C)C[C@@H](N)[C@H](O)C(=O)N[C@H](C(=O)N[C@H](C(=O)N[C@@H](CC(=O)O)C(=O)O)C(C)C)C(C)C [Amastatin],Effect on APN activity,[1],greatly reduced
same,Effect on APN activity,[2],did not show significantly impact
"Cry1Ac: trypsin-activated, purified B. thuringiensis Cry1Ac toxin",Binding of rhodamine-labeled toxin (immunofluorescence),[3],does not bind
same,Binding of APN to toxin affinity column,[4],did not bind
same,Binding to purified 115 kDa APN,[5],bind
same,Specific binding to M. sexta 120 kDa APN,[6],bound specifically
same,"Mortality (%) (±SE), Cells transfected with pHSP 120","[7]; 40 μg/ml toxin in insect PBS, Trypan blue (0.1%) staining, means of three assays (±standard error)",20.0 (±0.4) %
same,Difference in mortality between pHSP120- and pHSP-HR5-transfected Sf21 cells,[7]; 40 μg/ml toxin,no significant difference
same,Toxicity in words,"[7]; 40 μg/ml toxin, Sf21 cells transfected with pHSP120",low toxicity
same,"Mortality (%) (±SE), Cells transfected with pHSP-HR5","[8]; 40 μg/ml toxin in insect PBS, Trypan blue (0.1%) staining, means of three assays (±standard error), control vector",20.6 (±0.5) %
same,Toxicity in words,"[8]; 40 μg/ml toxin, Sf21 cells transfected with pHSP-HR5",low toxicity
Cry1Aa: Bacillus thuringiensis Cry1 δ-endotoxin (literature),Binding to purified 115 kDa APN,[5],bind
same,Specific binding to M. sexta 120 kDa APN,[6],bound specifically
Cry1Ab: Bacillus thuringiensis Cry1 δ-endotoxin (literature),Binding to purified 115 kDa APN,[5],bind
same,Specific binding to M. sexta 120 kDa APN,[6],bound specifically
